For the assay, the target named is T1, CD22 (UniProtKB-P20273) on CD22(+) cells (human, UniProt P20273 20-847).
T1 construct: Endogenous CD22 on the NALM6 and Raji cell lines; also called SIGLEC-2; BL-CAM
T1 sequence: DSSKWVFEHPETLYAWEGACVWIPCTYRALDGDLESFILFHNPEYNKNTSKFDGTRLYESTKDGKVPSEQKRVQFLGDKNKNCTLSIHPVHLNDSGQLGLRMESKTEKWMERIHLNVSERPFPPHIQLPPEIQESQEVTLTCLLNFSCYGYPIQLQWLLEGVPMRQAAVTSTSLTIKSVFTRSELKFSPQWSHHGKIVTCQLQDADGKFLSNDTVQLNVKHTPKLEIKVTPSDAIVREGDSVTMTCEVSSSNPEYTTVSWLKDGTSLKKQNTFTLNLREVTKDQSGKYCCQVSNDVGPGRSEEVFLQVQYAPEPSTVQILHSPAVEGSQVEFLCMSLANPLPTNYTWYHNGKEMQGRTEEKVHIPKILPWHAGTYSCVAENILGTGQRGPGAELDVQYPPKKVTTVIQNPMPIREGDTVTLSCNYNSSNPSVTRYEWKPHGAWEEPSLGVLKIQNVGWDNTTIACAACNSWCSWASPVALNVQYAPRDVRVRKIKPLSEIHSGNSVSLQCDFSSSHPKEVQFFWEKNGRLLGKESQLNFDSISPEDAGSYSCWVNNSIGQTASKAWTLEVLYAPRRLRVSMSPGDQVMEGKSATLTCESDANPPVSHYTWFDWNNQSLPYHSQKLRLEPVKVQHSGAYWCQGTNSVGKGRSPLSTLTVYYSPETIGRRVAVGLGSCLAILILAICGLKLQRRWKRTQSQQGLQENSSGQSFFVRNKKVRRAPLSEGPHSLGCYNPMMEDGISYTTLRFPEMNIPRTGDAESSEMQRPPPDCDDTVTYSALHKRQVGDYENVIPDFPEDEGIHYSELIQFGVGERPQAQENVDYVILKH
The assay is described as follows: flow cytometry (FACS) on CD22(+) NALM6 cells, detected with an anti-human Fc second antibody. Here is the method:
The binding of bispecific CD22-CD3 IgG-scFv antibodies to NALM6 CD22(+) leukemic cells was assayed using FACS. CD22(−) MOLM13 AML cells were used as a negative control for CD22 expression, and anti-CD3 humanized OKT3 (huOKT3) was used as a negative antibody control. […] In contrast, neither the chimeric LL2 IgG+huOKT3 scFv nor the huOKT3 antibody stained the CD22(−) MOLM13 AML cells.
For orientation: Flow cytometry measures light scatter and fluorescence of single cells or particles in a stream.

B1: chimeric anti-CD22-CD3 BsAb (chLL2 x CD3 BsAb) (bispecific antibody)
heavy: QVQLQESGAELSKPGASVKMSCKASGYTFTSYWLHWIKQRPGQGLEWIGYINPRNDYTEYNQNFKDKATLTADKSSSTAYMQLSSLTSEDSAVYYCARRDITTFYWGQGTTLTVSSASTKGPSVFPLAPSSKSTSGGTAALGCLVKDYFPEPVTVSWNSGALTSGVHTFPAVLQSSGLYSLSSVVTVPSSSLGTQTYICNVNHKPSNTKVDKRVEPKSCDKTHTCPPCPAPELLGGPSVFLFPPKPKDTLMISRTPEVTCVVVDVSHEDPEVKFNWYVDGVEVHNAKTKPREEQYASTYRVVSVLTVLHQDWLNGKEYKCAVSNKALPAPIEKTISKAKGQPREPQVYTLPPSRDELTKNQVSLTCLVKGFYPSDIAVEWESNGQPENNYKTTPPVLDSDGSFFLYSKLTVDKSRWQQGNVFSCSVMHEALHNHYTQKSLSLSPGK
light: DIQLTQSPSSLAVSAGENVTMSCKSSQSVLYSANHKNYLAWYQQKPGQSPKLLIYWASTRESGVPDRFTGSGSGTDFTLTISRVQVEDLAIYYCHQYLSSWTFGGGTKLEIKRTVAAPSVFIFPPSDEQLKSGTASVVCLLNNFYPREAKVQWKVDNALQSGNSQESVTEQDSKDSTYSLSSTLTLSKADYEKHKVYACEVTHQGLSSPVTKSFNRGECTSGGGGSGGGGSGGGGSQVQLVQSGGGVVQPGRSLRLSCKASGYTFTRYTMHWVRQAPGKCLEWIGYINPSRGYTNYNQKFKDRFTISRDNSKNTAFLQMDSLRPEDTGVYFCARYYDDHYSLDYWGQGTPVTVSSGGGGSGGGGSGGGGSGGGGSGGGGSGGGGSDIQMTQSPSSLSASVGDRVTITCSASSSVSYMNWYQQTPGKAPKRWIYDTSKLASGVPSRFSGSGSGTDYTFTISSLQPEDIATYYCQQWSSNPFTFGCGTKLQITR
notes: IgG-scFv format: huOKT3 scFv fused to the C-terminus of the LL2 IgG1 light chain; also called chimeric LL2 IgG+huOKT3 scFv
Consider B1, for which the binding result was “binds”.

These data come from patent publication US20220177581A1 (Memorial Sloan Kettering, published 2022).
